Data set [1] deals with the molecule itself. Kind of data set: SEC. A general note: Size exclusion chromatography separates by hydrodynamic size, large species first.
Data set [2] concerns the molecule itself. The data set can be described thus: SEC. The source holds these as a separate data set.

Like-named read-outs stand apart in the source and are kept apart here.

B1: bacteriophytochrome from Deinococcus radiodurans (DrBphP) (natural protein, Deinococcus radiodurans strain R1, UniProt Q9RZA4 1-755, looked up)
chain: MSRDPLPFFPPLYLGGPEITTENCEREPIHIPGSIQPHGALLTADGHSGEVLQMSLNAATFLGQEPTVLRGQTLAALLPEQWPALQAALPPGCPDALQYRATLDWPAAGHLSLTVHRVGELLILEFEPTEAWDSTGPHALRNAMFALESAPNLRALAEVATQTVRELTGFDRVMLYKFAPDATGEVIAEARREGLHAFLGHRFPASDIPAQARALYTRHLLRLTADTRAAAVPLDPVLNPQTNAPTPLGGAVLRATSPMHMQYLRNMGVGSSLSVSVVVGGQLWGLIACHHQTPYVLPPDLRTTLEYLGRLLSLQVQVKEAADVAAFRQSLREHHARVALAAAHSLSPHDTLSDPALDLLGLMRAGGLILRFEGRWQTLGEVPPAPAVDALLAWLETQPGALVQTDALGQLWPAGADLAPSAAGLLAISVGEGWSECLVWLRPELRLEVAWGGATPDQAKDDLGPRHSFDTYLEEKRGYAEPWHPGEIEEAQDLRDTLTGALGERLSVIRDLNRALTQSNAEWRQYGFVISHHMQEPVRLISQFAELLTRQPRAQDGSPDSPQTERITGFLLRETSRLRSLTQDLHTYTALLSAPPPVRRPTPLGRVVDDVLQDLEPRIADTGASIEVAPELPVIAADAGLLRDLLLHLIGNALTFGGPEPRIAVRTERQGAGWSIAVSDQGAGIAPEYQERIFLLFQRLGSLDEALGNGLGLPLCRKIAELHGGTLTVESAPGEGSTFRCWLPDAGPLPGAADA
modifications: biliverdin IXα chromophore, thioether linkage to the conserved cysteine within the PAS domain
One may read the stoichiometry N as the number of molecules, sites or subunits per partner or assembly. Turning to B1, in “SEC [1]”, the “stoichiometry N” value was 2.

B2: response regulator from Agrobacterium fabrum (AtRR) (natural protein, Agrobacterium fabrum strain C58)
chain: MPELRPILLVEDNPRDLELTLTALEKCQLANEVVVARDGTEALDYLNVTGSHHNRPGGDPAVVLLDLKLPKVDGLEVLQTVKGSDHLRHIPVVMLTSSREEQDLVKSYELGVNAFVVKPVEFNQFFKAIQDLGVFWALLNE
For the protein B2, in the data set “SEC [2]”, the “stoichiometry N” value worked out at 2.

The record behind these values is paper doi:10.1101/2020.06.26.173310 (bioRxiv, 2020).
